Source: publication doi:10.1101/2020.08.15.252130
Like-named read-outs stand apart in the source and are kept apart here.

Assays:
Test in all cases: NMR
LS2 RRM2 = LS2 RRM2 (Drosophila melanogaster, UniProt Q9W1T4 242-319)
LS2 RRM1 [1] = molecular target: T1, LS2 RRM1 (Drosophila melanogaster, UniProt Q9W1T4 110-204)
LS2 linker-RRM2 = molecular target: T2, LS2 linker-RRM2 (Drosophila melanogaster, UniProt Q9W1T4 204-325)
T2 sequence: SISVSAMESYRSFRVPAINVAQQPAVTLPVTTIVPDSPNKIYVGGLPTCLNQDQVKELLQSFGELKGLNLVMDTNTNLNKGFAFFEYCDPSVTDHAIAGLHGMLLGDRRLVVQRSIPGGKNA

LS2 RRM1,2 = LS2 RRM1,2 (Drosophila melanogaster, UniProt Q9W1T4 110-325)
LS2 RRM1 [2] = molecular target: T1, LS2 RRM1; remark: listed apart in the source

Row | Binder | binding result (LS2 RRM2) | binding result (LS2 RRM1 [1]) | binding result (LS2 linker-RRM2) | binding result (LS2 RRM1,2) | binding result (LS2 RRM1 [2])
1 | GGGGAGGAGGGGGGCGUAUGA (structured_RNA) [21-mer G4 RNA] | binds | binds | binds | binds | 
2 | CGUAUGA (ssRNA) [7-mer (3' end of 21-mer)] | no binding |  |  |  | 
3 | GGUGGUGG (structured_RNA) [8-mer] |  |  |  |  | binds
4 | GGGUGGUGGAGGGG (structured_RNA) [14-mer] | no binding |  |  |  | binds
